Results as given in article PMC7101348, “Modulation of BIN2 kinase activity by HY5 controls hypocotyl elongation in the light” (Nature Communications, 2020).
Each block holds one binder with its values, some of them ahead of it.

Assays:
[1] = target: T1, His-BIN2 (full-length BIN2) (Arabidopsis thaliana, UniProt Q39011 1-380); test: cell-based or functional assay
T1 sequence (looked up): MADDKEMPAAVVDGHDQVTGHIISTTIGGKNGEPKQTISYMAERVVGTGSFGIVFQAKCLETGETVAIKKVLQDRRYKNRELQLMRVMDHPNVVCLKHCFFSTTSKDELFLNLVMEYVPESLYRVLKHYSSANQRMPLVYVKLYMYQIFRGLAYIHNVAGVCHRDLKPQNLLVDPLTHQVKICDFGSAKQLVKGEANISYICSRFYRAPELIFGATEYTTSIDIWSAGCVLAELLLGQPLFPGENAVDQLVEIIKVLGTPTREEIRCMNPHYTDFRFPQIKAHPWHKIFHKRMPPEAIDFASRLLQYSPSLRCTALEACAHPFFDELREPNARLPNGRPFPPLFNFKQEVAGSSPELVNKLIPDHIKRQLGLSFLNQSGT

[2] = target: T1, His-BIN2 (full-length BIN2); test: pull-down; 1 μg GST-HY5 and 1 μg His-BIN2 in 1 ml binding buffer (25 mM Tris-Cl pH 7.5, 100 mM NaCl, 0.1% NP40), 4 °C; GST beads; washed with 25 mM Tris-Cl pH 7.5, 500 mM NaCl; blots with anti-GST and anti-His; conditions: both partners purified

in vitro kinase assay: BIN2-mediated phosphorylation of BZR1 with recombinant C-terminal domain of HY5 (HY5-C) added, against the control [1]: ~2 fold
B1: GST-HY5-C (HY5 aa 78-168) (domain or fragment, Arabidopsis thaliana, UniProt O24646 78-168, looked up)
chain: RKRGRTPAEKENKRLKRLLRNRVSAQQARERKKAYLSELENRVKDLENKNSELEERLSTLQNENQMLRHILKNTTGNKRGGGGGSNADASL

in vitro kinase assay: BIN2-mediated phosphorylation of BZR1 with recombinant full-length HY5 (HY5-F) added, against the control [1]: ~2 fold
B2: GST-HY5 (full-length HY5, HY5-F) (natural protein, Arabidopsis thaliana, UniProt O24646 1-168, looked up)
chain: MQEQATSSLAASSLPSSSERSSSSAPHLEIKEGIESDEEIRRVPEFGGEAVGKETSGRESGSATGQERTQATVGESQRKRGRTPAEKENKRLKRLLRNRVSAQQARERKKAYLSELENRVKDLENKNSELEERLSTLQNENQMLRHILKNTTGNKRGGGGGSNADASL

binding result [2]: binds
B3: GST-HY5-M (HY5 L137D) (natural protein, Arabidopsis thaliana, UniProt O24646 1-168, looked up)
chain: MQEQATSSLAASSLPSSSERSSSSAPHLEIKEGIESDEEIRRVPEFGGEAVGKETSGRESGSATGQERTQATVGESQRKRGRTPAEKENKRLKRLLRNRVSAQQARERKKAYLSELENRVKDLENKNSELEERLSTDQNENQMLRHILKNTTGNKRGGGGGSNADASL
notes: HY5, Arabidopsis, with Leu137 changed to Asp; Probably full-length HY5; also called mutated HY5; source: recombinant protein, purified
